The target in assay [1] is T1, recombinant full-length Tau protein, longest isoform (Tau 2N4R) (human, UniProt P10636-8 1-441, limits assumed, biotinylated with NHS-biotin for SPR; 15N-labelled for NMR). The assay is described as follows: cell-based or functional assay.
For assay [2], the target named is T1, recombinant full-length Tau protein, …. The assay is described as follows: SPR (Biacore T200), single-cycle kinetics, biotinylated Tau on streptavidin chip, VHH injected 0.125-2 µM. The protocol: (§1) Affinity measurements were performed on a BIAcore T200 optical biosensor instrument (GE Healthcare). Recombinant Tau proteins were biotinylated with 5 molar excess of NHS-biotin conjugates (Thermofisher) during 4 hours at 4° C. Capture of biotinylated Tau was performed on a streptavidin SA sensorchip in HBS-EP+ buffer (GE Healthcare). One flow cell was used as a reference to evaluate nonspecific binding and provide background correction. Biotinylated-Tau was injected at a flow-rate of 30 μL/min, until the total amount of captured Tau reached 500 resonance units (RUs). VHHs were injected sequentially with increasing concentrations ranging between 0.125 and 2 μM in a single cycle, with regeneration (3 successive washes of 1M NaCl) between each VHH. On the other hand, VHH Z70 was immobilized on a CMS chip in HBS-EP+ buffer (GE Healthcare) and increasing concentrations, ranging between 0.125 and 2 μM of the SUMO-Tau peptide, were successively injected. Single-Cycle Kinetics (SCK) analysis⁵² was performed to determine association kon and dissociation Koff rate constants by curve fitting of the sensorgrams using the 1:1 Langmuir model of interaction of the BIAevaluation sotware 2.0 (GE Healthcare). Dissociation equilibrium constants (KD) was calculated as kon/Koff.
(In general: Surface plasmon resonance follows binding to a sensor surface in real time, without labels.)

In assay [3] the target is T2, His-SUMO-Tau peptide Tau[273-318] (human, UniProt O02828 235-280 (Capra hircus entry), not fully specified).
T2 construct: SUMO domain fused at its C-terminus to the Tau peptide [273-318]; also called fused peptide; not shown: The N-terminal HisTag, the SUMO3 domain and any linker from vector pETNKI-HisSUMO3-LIC
T2 peptide: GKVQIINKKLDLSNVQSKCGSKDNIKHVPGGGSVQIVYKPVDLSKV
In words: SPR, single-cycle kinetics, VHH Z70 immobilized on the chip, SUMO-Tau[273-318] injected 0.125-2 µM. The protocol:
as §1, with “[…]. […]” for “kon/Koff.”

Assay [4] deals with T1, recombinant full-length Tau protein, …. In words: SPR (Biacore T200), single-cycle kinetics, biotinylated Tau on streptavidin chip, VHH injected 0.125-2 µM. The protocol:
as §1, with “VHH.” for “VHH. On the other hand, VHH Z70 was immobilized on a CMS chip in HBS-EP+ buffer (GE Healthcare) and increasing concentrations, ranging between 0.125 and 2 μM of the SUMO-Tau peptide, were successively injected.”, “(Kd)” for “(KD)”
The source holds these as a separate data set.

Assay [5] has the same target. In words: SPR, biotinylated Tau on streptavidin chip (the best mutant is Mut1 by Table 4). The protocol:
as §1, with “VHH.” for “VHH. On the other hand, VHH Z70 was immobilized on a CMS chip in HBS-EP+ buffer (GE Healthcare) and increasing concentrations, ranging between 0.125 and 2 μM of the SUMO-Tau peptide, were successively injected.”, “(Kd)” for “(KD)”
A mutant library of VHH Z70 has been screened for mutants displaying a stronger affinity in yeast two-hybrid system as described above. 8 mutants were selected and their affinity have been further characterized using SPR experiments.

Like-named read-outs stand apart in the source and are kept apart here.

T1 sequence (P10636 other isoform, or with tags, fused parts or gaps limits assumed): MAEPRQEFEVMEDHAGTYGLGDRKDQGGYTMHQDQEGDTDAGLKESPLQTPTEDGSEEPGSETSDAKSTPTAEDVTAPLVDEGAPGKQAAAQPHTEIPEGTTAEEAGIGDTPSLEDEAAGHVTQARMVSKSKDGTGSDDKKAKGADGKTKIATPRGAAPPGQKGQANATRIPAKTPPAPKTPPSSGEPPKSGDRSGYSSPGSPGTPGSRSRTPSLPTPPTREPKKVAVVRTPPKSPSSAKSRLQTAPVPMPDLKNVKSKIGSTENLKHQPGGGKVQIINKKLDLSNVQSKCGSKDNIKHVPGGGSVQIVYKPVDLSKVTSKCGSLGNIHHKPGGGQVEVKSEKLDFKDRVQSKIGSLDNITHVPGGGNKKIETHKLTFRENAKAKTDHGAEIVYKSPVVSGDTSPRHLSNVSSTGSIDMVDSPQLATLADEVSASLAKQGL

B1: VHH E4-1 (VHH)
VHH: EVQLQASGGGFVQPGGSLRLSCAASGATSTFDGMGWFRQAPGKEREFVSAISYEQGSYTYYADSVKGRFTISRDNSKNTVYLQMNSLRAEDTATYYCAPAYEGDLYAFDSYWGQGTQVTVSS
notes: Selected from the synthetic Nali-H1 phage library; also called lead VHH E4-1
One may read the Kd as the equilibrium constant for the complex coming apart. The term koff denotes a measure of how fast the partners let go of each other. By kon is commonly meant the rate constant with which the complex forms. On to B1, for which, in assay [1], the “Thioflavin T fluorescence signal (% of positive control), 1:1 Tau:VHH E4-1 molar ratio” value came to 58.3%; the “maximal Thioflavin T fluorescence signal (% of positive control), molar ratio 1:0.25 Tau:VHH E4-1” value stood at 86.9%; the “time to gain 50% of maximal Thioflavin T signal, 1:1 Tau:VHH E4-1 molar ratio” value is greater than 12.8 h; the “time to gain 50% of maximal Thioflavin T signal, molar ratio 1:0.25 Tau:VHH E4-1 (2.5 h for the positive control)” value is roughly 3.8 h. Also, in assay [2], the Kd came out at 345 nM, the dissociation rate constant (koff) turned out to be 0.0017 s⁻¹ and the kon stood at 4980 M⁻¹ s⁻¹.

B2: VHH Z70 (VHH)
VHH: EVQLQASGGVFVQSGGSLRLSCAASGATSTFDGMGWFRQAPGKEREFVSAISYEQGSYTYYADSVKGRFTISRDNSKNMVYLQMNSLRAEDTATYYCAPAYEGDLYAFDSYGGQGTQVTVSS
notes: E4-1 with G12V, P16S, T81M and W114G; It may be the form actually produced from pHEN2; also called single domain antibody Z70; optimized VHH Z70
Take B2: the “maximal Thioflavin T fluorescence signal (% of positive control), 1:1 Tau:VHH Z70 molar ratio” value in assay [1] stood at 4.1%. Moreover, the Kd in assay [2] was 147 nM; in assay [3], 85 nM; in assay [4], 147 nM. The koff stood at 0.0026 s⁻¹ in assay [2] and 0.00267 s⁻¹ in assay [4]. Moreover, the association rate constant (kon) in assay [2] and in assay [4] was 18100 M⁻¹ s⁻¹ throughout.

B3: VHH Mut20 (VHH)
VHH: EVQLQASGGVFVQSGGSLRLSCAASGATSTFDGMGWFRQAPGKEKEFVSAISYEQGSYTYYADSVKGRFTISRDNSKNMVYLQMNSLRAEDTATYYCAPAYEGDLYAFDSYGEQGTQVTVSS
notes: Variant of Z70; also called VH Mut20
Consider B3, for which, in assay [4], the Kd is 41.8 nM, the dissociation rate constant (koff) was 0.00089 s⁻¹ and the kon amounted to 21200 M⁻¹ s⁻¹.

B4: VHH Mut5 (VHH)
VHH: EVQLQASGGVFVQSGGSLRLSCAASGATSTFDGMGWFRQAPGKEREFVSAISYEQGSYTYYADSVKGRFTISRDNSKNMVYLQMNSLRAEDTASYYCAPAYEGDLYAFDSYGGQGTQVTVSS
notes: Variant of Z70; also called VH Mut5
On to B4, for which, in assay [4], the Kd came to 80.8 nM, the koff was 0.000883 s⁻¹ and the kon turned out to be 10900 M⁻¹ s⁻¹.

B5: VHH Mut9 (VHH)
VHH: EVQLQASGGVFVQSGGSLRLSCAASGATSTFDGMGWFRQAPGKEREFVSAISYEQGSYTYYADSVKGRFTISRDNSKNMVYLQMNSLRAEDTATYYCASAYEGDLYAFDSYGEQGTQVTVSS
notes: Variant of Z70; also called VH Mut9
As to B5, in assay [4], the equilibrium dissociation constant (Kd) came out at 51 nM, the off-rate constant (koff) is 0.00205 s⁻¹ and the kon turned out to be 40100 M⁻¹ s⁻¹.

B6: VHH Mut1 (VHH)
VHH: EVQLQASGGVFVQSGGSLRLSCAASGATSTFDGMGWFRQAPGKEREFVSAISYEQGSYTYYADSVKGRFTISRDNSKNMVYLQMNSLRAEDTATYYCAPAYEGDLYAFDSYGEQGTQVTVSS
notes: Variant of Z70; also called VH Mut1
As for B6, in assay [5], the “fold improvement of KD against VHH Z70” value is greater than 6 fold. Moreover, in assay [4], the dissociation constant Kd was 22.6 nM, the off-rate constant (koff) worked out at 0.00242 s⁻¹ and the kon was 107000 M⁻¹ s⁻¹.

B7: VHH Mut12 (VHH)
VHH: AEVQLQASGGVFVQSGGSLRLCCAASGATSTFDGMGWFRQAPGKEREFVSAISYEQGSYTYYADSVKGRFTISRDNSKNMVYLQMNSLRAEDTATYYCAPAYEGDLYAFDSYGEQGTQVTVSS
notes: Variant of Z70; also called VH Mut12
Take B7: in assay [4], the equilibrium dissociation constant (Kd) turned out to be 61.1 nM, the koff turned out to be 0.00207 s⁻¹ and the kon turned out to be 33900 M⁻¹ s⁻¹.

B8: VHH Mut3 (VHH)
VHH: EVQLQASGGVFVQSGGSLRLSCAASGATSTFDGMGWFRQAPGKEKEFVSAISYEQGSYTYYADSVKGRFTISRDNSKNMVYLQMNSLRAEDTATYYCAPAYEGDLYAFDSYGGQGTQVTVSS
notes: Variant of Z70; also called VH Mut3
Regarding B8, in assay [4], the equilibrium dissociation constant (Kd) was determined as 80.5 nM, the off-rate (koff) stood at 0.0021 s⁻¹ and the on-rate constant (kon) came to 26000 M⁻¹ s⁻¹.

B9: VHH Mut14 (VHH)
VHH: EVQLQASGGVFVQSGGSLRLSCAASGATSIFDGMGWFRQAPGKEREFVSAISYGQGSYTYYADSVKGRFTISRDNSKNMVYLQMNSLRAEDTATYYCAPAYEGDLYAFDSYGEQGTQVTVSS
notes: Variant of Z70; also called VH Mut14
Consider B9, for which, in assay [4], the Kd was 74.2 nM, the koff was found to be 0.0014 s⁻¹ and the kon was 18800 M⁻¹ s⁻¹.

B10: VHH Mut15 (VHH)
VHH: EVQLQASGGVFVQSGGSLRLSCAASGATSTFDGMGWFRQAPGKEREFVSAISYEQGSYTYYADSVKGRFTISRDNSKNMVYLQMNSLGAEDTATYYCASAYEGDLYAFDSYEGQGTQVTVSS
notes: Variant of Z70; also called VH Mut15
In the case of B10, in assay [4], the Kd was found to be 95.6 nM, the koff was found to be 0.00203 s⁻¹ and the association rate constant (kon) stood at 21300 M⁻¹ s⁻¹.

Source of the values: patent publication US20220017611A1 (INSERM INSTITUTE NATIONAL DE LA SANT ET DE LA RECHERCHE M …, published 2022).
